Measurements as given in patent WO2012003472A1 (dated 2012).

T1: rhNotch3-Fc (human, UniProt Q9UM47 40-467)
T1 construct: Bought protein; also called human Notch3 protein; R&D Cat. No. 1559-NT-050; not shown: Fc part
T1 sequence (looked up): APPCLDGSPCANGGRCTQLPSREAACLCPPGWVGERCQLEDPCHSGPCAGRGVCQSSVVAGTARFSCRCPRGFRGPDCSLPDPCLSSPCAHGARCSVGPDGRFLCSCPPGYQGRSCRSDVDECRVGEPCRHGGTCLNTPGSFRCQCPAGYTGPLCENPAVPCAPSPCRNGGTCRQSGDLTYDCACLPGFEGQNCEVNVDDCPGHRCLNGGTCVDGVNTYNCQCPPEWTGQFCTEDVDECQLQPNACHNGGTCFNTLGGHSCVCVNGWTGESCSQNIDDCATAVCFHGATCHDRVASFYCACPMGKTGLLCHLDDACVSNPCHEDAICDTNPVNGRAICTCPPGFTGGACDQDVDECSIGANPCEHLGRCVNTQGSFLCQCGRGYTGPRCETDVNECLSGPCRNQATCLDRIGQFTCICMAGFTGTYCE

T2: rhNotch2-Fc (human, UniProt Q04721 26-530)
T2 construct: Bought protein; also called human Notch2 protein; R&D Cat. No. 3735-NT-050; not shown: Fc part
T2 sequence (looked up): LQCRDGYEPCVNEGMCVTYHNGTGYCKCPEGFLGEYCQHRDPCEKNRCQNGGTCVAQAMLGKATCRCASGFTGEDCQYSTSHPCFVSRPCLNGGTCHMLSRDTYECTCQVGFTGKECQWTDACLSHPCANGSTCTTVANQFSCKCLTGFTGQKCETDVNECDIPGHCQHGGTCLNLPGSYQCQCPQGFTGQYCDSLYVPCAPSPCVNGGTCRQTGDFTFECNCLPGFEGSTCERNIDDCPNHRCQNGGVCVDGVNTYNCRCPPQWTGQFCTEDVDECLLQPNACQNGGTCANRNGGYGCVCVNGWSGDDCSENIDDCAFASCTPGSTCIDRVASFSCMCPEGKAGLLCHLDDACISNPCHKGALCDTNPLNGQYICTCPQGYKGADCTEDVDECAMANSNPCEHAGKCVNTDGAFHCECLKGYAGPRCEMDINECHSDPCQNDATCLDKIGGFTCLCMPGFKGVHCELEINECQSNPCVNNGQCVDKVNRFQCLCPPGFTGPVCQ

B1: antibody 2E6 (antibody, mouse IgG1, kappa, V domains shown)
VH: EVQLQQSGAELARPGASVKMSCKASGYTFTSYWMHWVKQRPGQGLEWIGAVYPRNNDTTYNQKFKGKAKLTAVTSASTAYMALSSLTNEDSAVYYCLYFNYNFDYWGQGTTLTVSS
VL: QIVLTQSPAIMSASPGEKVTMTCSASSSVSYMHWYQQKPGSSPRLLIYDTSNLASGVPVHFSGSGSGTSYSLTIIRMEAEDAATYYCQQWSSYPYTFGGGTKLEIKR
notes: Mouse monoclonal from hybridoma, IgG1 kappa; also called 2E06; mu2E6
B2: Hu2E6-62 (antibody, human IgG1, kappa, V domains shown)
VH: EVQLVQSGAEVAKPGASVKMSCKASGYTFTSYWMHWVKQAPGQGLEWIGAVYPRNNDATYNQKFKGKATLTADTSTSTAYMELRSLRSDDTAVYYCLYFNYNFDYWGQGTLLTVSS
VL: EIVLTQSPATMSASPGERVTMSCRASSSVSYMHWYQQKPGQSPRLLIYDTSNRASGVPAHFSGSGSGTDYTLTISSMEPEDFATYYCQQWSSYPYTFGQGTKLEIKR
B3: antibody 2A11 (antibody, mouse IgG2b, kappa, V domains shown)
VH: QVQLQQSGPELVKPGASVKISCKASGYAFSSSWMNWVKQRPGKGLEWIGRIYPGDGDTNYNGKFKGKATLTADKSSSTAYMQLSSLTSEDSAVYFCARSGSIYYGNHGDYFDYWGQGTTLTVSS
VL: B1 VL
notes: Mouse monoclonal from hybridoma, IgG2b kappa
B4: antibody 2D11 (antibody, mouse IgG1, kappa, V domains shown)
VH: EVQLQQSGAELARPGASVKMSCKASGYTFTRYWMHWVKQRPGQGLEWIGAIYPGNSDTTYNQKFKGKAKLTAVTSASTAYMELSSLTNEDSAVYYCIYPYDYLDYWGQGTTLTVSS
VL: QIVLTQSPAIMSASPGEKVTMTCSASSSLSYMHWYQQKPGTSPKRWVYDTSKLASGVPARFSGSGSGTSYSLTISSMEAEDAATYYCHQRSSYPYTFGGGTKLEIKR
notes: Mouse monoclonal from hybridoma, IgG1 kappa

How the values were obtained:
[1] = target: human Notch1 displayed on the surfaces of cells (human, UniProt P46531 19-2555); test: cell-based or functional assay
human Notch1 displayed on the surfaces of cells, sequence (P46531 19-2555): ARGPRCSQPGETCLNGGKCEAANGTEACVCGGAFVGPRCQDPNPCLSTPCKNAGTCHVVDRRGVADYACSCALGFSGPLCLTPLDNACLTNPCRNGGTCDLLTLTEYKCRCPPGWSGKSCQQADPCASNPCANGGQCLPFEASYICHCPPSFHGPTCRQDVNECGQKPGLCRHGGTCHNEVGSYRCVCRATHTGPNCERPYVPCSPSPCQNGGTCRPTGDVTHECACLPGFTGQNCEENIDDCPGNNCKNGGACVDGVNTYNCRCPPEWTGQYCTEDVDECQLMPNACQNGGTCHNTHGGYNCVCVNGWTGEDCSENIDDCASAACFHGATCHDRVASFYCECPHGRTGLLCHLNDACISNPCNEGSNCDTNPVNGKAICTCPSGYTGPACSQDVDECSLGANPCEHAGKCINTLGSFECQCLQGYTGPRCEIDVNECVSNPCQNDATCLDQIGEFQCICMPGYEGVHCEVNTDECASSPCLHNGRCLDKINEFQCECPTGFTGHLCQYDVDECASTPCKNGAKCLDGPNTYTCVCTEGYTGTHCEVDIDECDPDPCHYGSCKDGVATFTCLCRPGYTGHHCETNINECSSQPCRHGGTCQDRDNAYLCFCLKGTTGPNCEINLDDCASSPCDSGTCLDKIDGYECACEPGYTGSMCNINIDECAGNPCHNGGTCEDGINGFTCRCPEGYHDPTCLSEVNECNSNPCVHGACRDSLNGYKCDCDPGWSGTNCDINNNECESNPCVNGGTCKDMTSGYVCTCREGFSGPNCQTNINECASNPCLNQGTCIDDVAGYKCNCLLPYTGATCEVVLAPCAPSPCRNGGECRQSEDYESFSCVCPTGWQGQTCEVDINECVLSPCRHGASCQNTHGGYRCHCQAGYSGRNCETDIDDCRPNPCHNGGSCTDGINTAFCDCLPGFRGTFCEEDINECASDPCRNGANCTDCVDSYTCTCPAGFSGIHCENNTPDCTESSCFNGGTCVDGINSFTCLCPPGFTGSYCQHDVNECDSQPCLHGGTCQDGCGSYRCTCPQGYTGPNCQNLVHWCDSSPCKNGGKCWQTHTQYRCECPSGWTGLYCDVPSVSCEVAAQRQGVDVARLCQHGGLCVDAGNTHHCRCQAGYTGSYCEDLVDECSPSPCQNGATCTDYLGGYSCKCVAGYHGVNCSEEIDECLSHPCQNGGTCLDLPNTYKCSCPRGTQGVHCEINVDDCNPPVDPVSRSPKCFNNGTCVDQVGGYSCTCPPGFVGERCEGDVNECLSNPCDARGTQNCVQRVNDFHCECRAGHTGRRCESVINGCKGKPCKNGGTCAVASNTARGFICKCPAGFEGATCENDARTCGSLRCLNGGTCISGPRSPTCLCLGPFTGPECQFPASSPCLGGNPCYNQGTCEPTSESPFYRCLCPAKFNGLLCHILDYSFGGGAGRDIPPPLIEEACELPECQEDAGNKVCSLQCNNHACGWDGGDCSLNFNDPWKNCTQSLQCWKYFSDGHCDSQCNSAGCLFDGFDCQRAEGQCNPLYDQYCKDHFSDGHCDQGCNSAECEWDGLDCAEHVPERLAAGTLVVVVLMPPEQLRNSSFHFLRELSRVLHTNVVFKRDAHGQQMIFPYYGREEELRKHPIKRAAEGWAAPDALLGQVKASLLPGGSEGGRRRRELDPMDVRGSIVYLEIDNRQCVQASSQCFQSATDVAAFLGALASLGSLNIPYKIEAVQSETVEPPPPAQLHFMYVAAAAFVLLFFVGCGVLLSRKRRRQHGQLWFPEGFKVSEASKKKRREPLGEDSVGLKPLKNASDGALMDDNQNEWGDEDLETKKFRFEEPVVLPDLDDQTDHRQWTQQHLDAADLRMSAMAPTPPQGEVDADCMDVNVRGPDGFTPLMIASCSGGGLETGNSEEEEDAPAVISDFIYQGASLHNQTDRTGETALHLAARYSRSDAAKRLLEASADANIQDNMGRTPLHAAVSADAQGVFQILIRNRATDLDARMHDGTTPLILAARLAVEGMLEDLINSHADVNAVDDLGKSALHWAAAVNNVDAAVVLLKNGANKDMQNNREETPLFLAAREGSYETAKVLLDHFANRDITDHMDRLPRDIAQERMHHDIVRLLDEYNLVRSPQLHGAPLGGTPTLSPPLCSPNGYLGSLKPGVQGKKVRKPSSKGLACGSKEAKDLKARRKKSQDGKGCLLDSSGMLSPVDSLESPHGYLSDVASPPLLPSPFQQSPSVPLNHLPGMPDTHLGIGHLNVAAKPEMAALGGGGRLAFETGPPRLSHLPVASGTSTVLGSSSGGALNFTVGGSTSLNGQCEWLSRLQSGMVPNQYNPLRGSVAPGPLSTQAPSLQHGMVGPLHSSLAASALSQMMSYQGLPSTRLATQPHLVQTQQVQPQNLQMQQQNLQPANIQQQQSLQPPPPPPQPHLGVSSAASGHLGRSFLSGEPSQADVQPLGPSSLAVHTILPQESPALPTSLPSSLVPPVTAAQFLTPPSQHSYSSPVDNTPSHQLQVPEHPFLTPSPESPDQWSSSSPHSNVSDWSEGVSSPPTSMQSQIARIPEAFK

[2] = target: T3, recombinant human Notch 1/Fc fusion protein (rhNotch1-Fc) (human, UniProt P46531 19-526); test: SPR (Biacore T100), antibody captured on anti-mouse IgG, rhNotch1-Fc as analyte, 25°C
T3 construct: Bought protein; also called rhNotchl-Fc; R&D Systems Cat. No. 3647-TK-050; not shown: Fc part

rhNotch3-Fc = target: T1, rhNotch3-Fc; test: BLI (Octet QK), Notch-Fc on anti-human-Fc sensors
rhNotch2-Fc = target: T2, rhNotch2-Fc; test: BLI (Octet QK), Notch-Fc on anti-human-Fc sensors
[3] = target: T4, human Notch3 displayed on the surfaces of cells (human, UniProt Q9UM47 40-2321); test: electrochemiluminescence (Meso Scale Discovery) on CHO FlpIn cells
T4 construct: whole, on cells; also called human Notch3 on CHO FlpIn cells; Notch3-dependent reporter cells

[4] = target: T5, human Notch4 displayed on the surfaces of cells (human, UniProt Q99466 24-2003); test: as above
T5 construct: whole, on cells; also called human Notch4 on CHO FlpIn cells
T5 sequence (Q99466 24-2003): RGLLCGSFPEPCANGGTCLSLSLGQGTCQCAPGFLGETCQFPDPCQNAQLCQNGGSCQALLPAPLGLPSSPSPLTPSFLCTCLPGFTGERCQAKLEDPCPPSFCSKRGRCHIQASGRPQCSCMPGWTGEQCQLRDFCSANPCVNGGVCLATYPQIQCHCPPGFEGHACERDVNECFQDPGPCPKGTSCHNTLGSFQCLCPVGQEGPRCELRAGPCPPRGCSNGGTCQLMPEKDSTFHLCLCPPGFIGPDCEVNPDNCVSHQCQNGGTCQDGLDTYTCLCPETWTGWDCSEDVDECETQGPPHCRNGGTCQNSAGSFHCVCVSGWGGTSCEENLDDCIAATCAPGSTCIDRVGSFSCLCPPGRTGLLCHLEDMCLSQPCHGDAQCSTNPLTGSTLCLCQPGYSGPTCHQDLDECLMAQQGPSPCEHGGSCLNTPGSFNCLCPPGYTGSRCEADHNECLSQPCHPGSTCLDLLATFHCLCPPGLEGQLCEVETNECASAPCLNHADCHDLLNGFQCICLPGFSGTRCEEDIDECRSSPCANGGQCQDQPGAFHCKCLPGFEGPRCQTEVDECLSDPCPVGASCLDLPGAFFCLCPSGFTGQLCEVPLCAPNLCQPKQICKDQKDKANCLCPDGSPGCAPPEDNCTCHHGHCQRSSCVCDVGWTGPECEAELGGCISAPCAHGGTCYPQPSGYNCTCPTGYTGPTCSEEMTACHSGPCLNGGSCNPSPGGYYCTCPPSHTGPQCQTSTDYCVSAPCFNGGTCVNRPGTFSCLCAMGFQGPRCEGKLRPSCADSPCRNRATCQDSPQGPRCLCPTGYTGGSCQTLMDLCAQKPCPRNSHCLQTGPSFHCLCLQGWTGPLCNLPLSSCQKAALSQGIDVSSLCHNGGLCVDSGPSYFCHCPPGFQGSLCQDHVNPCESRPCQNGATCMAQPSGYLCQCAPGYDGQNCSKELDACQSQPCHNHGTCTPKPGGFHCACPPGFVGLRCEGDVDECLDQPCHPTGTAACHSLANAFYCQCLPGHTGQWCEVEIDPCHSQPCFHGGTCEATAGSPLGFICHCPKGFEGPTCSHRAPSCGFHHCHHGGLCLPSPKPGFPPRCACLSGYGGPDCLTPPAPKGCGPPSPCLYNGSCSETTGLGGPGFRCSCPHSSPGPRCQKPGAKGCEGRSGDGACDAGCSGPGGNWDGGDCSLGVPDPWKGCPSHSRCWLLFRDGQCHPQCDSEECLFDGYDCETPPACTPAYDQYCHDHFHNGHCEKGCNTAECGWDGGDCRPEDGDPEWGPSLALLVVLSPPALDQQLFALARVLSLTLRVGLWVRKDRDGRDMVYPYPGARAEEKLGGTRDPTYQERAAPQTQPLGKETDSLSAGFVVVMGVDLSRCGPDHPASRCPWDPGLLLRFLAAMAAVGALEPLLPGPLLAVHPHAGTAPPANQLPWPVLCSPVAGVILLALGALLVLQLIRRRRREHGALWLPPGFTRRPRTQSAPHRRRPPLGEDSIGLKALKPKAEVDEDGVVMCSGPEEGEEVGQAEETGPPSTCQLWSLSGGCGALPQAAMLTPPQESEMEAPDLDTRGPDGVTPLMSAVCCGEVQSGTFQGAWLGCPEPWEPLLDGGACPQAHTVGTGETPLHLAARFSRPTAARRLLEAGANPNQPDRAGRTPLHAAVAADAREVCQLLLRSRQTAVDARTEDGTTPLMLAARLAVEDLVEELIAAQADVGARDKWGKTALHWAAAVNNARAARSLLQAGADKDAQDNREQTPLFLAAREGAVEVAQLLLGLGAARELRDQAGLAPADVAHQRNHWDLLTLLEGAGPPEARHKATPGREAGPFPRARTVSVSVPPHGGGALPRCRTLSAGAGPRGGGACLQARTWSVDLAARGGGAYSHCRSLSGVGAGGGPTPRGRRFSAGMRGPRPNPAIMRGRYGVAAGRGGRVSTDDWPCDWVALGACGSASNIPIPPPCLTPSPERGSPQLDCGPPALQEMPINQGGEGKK

[5] = target: T6, human Notch2 displayed on the surfaces of cells (human, UniProt Q04721 26-2471); test: as above
T6 construct: whole, on cells; also called human Notch2 on CHO FlpIn cells; Notch2-dependent reporter cells

Row | Binder | EC50, Inhibition of Notch 1 Signaling, DLL1 (row printed 'DLI A') [1] | EC50, Inhibition of Notch 1 Signaling, DLL4 (row printed 'DLI A') [1] | EC50, Inhibition of Notch 1 Signaling, Jag 1 [1] | EC50, Inhibition of Notch 1 Signaling, Jag 2 [1] | Kd [2] | binding result (rhNotch3-Fc) | binding result (rhNotch2-Fc) | binding result [3] | binding result [4] | binding result [5]
1 | B1 | 0.2 nM | 0.1 nM | 0.4 nM | 0.1 nM | ≤ 10 nM |  |  |  |  | 
2 | B2 | 0.1 nM | 0.02 nM | 0.9 nM | 0.5 nM |  |  |  |  |  | 
3 | B3 |  |  |  |  | ≤ 10 nM | no binding (tested: 50 μg/ml antibody) | no binding (tested: 50 μg/ml antibody) | no binding (tested: 5 μg/ml antibody) | no binding (tested: 5 μg/ml antibody) | no binding (tested: 5 μg/ml antibody)
4 | B4 |  |  |  |  | ≤ 10 nM |  |  |  |  | 
